According to publication PMC2794200:

Biological target: GST-Trs33, bacterially expressed (S. cerevisiae) (UniProt Q99394)
Assay: pull-down

UniProt Q99394, sequence (Q99394 whole entry): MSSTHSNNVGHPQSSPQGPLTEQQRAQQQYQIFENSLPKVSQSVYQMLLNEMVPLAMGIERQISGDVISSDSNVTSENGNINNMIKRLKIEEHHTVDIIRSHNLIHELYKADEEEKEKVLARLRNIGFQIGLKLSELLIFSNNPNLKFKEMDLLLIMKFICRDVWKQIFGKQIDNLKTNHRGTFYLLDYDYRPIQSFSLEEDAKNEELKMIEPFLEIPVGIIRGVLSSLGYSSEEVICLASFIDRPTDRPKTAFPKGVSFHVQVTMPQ

- percent co-precipitated: 0.5%
Substance: Trs130-HA, bacterially expressed (from UniProt Q03660 1-1102) (natural protein)
